Data published in US20230122991A1, “GROWTH FACTOR FORMULATION FOR CONDITION ASSOCIATED WITH OTIC EVENT” (OTONOMY, INC., priority 2020, published 2023).

Key:
[1] = test system: adult male rats bilaterally exposed to noise; assay: Noise-induced cochlear synaptopathy, ABR and wave I amplitude after delayed intratympanic injection (Example L); type: in vivo, rat; conditions: for ABR threshold shift: ABR at day 28, FIG. 21; for wave I amplitudes: day 28, FIG. 22
Protocol: Animals: Male Sprague-Dawley rats (5-6 months of age) were used for efficacy studies and females (2-3 months) were used for pharmacokinetic studies.
Formulations: Human recombinant BDNF was suspended in the thermoreversible polymer Poloxamer 407 (16%) to reach a BDNF concentration of 0.005%.
Intratympanic (IT) injection: Formulations were administered under anesthesia as a single IT injection (20 μl) through the tympanic membrane into the middle ear, targeting the round window membrane (RWM).
Noise-induced cochlear synaptopathy: Rats received a single acoustic trauma (105 dB SPL, 8-16 kHz, 1 h) under anesthesia. […] Auditory function (ABR and ABR wave 1 amplitude) was monitored at day 28. At termination (Day 28), cochleae were collected and assessed for evidence of cochlear synaptopathy (IHC synaptic puncta counts).
Intratympanic BDNF Injected 1, 3, or 7 Days After Acoustic Trauma improves Auditory Brainstem Response (ABR) thresholds and wave I amplitudes in adult rats. The Auditory Brainstem Response (ABR) is an objective test that measures hearing sensitivity and can identify abnormalities in the peripheral auditory system and the auditory pathway up through the brainstem. Adult male rats were bilaterally exposed to noise followed by an intratympanic injection of 0.005% BDNF in P407 1 day, 3 days, 7 days, or 14 days after noise exposure. ABR recordings were obtained at day 28.
The ABR Wave I amplitude is an indicator of the strength of the distal cochlear nerve signal, i.e., the response of the spiral ganglion neurons/synapses.

[2] = test system: SGNs; assay: SGN complexity, dissociated SGNs (Example D); type: cell-based, rat; conditions: differences upon treatment, FIG. 7D
Text: SGNs were immunostained, imaged, and batch analyzed with PerkinElmer Harmony 4.6 software. Changes in the complexities of SGNs upon treatment with various agents were examined. […] All of the images in a single well were stitched together and analyzed. SGN somas are shown in the upper right panel and SGN neurites are shown in the lower left panel. As shown in the lower right panel, each neurite tree is assigned to a single cell for analysis. Depending on the stitching, occasionally neurites will not meet the criteria due to gaps that exceed a user-defined threshold.

[3] = test system: noise exposed adult rats; assay: Noise-induced hearing loss/synaptopathy, synaptic analysis of inner hair cells (Example A1); type: in vivo, rat; conditions: sustained release formulation, 0.005% BDNF in Poloxamer 407, single unilateral intratympanic administration 24 hrs after noise; Day 28; compared to vehicle treatment; FIG. 3B
Protocol: Male rats (Charles River) approximately 10-11 months of age served as subjects (N=6 per group). Prior to any procedures, animals were anesthetized using a combination of xylazine (10 mg/kg) and ketamine (90 mg/kg) for up to one hour via the intraperitoneal route. If needed, an intraoperative booster was administered intraperitoneally representing one-tenth of the original dose.
Noise exposure—Anesthetized animals (4 at a time) were placed in an enclosure and exposed to noise. The characteristics of the acoustic trauma were as follows: a single period of 1 h, sound pressure level of 105 dB SPL with a narrow band pass of 8-16 kHz. Noise was delivered using a Grason Stadler white noise generator, filtered through a Krohn Hite 3750 unit, amplified using a Crown D75 unit, and conveyed via a JBL speaker (model 2446H). Following treatment, the animals were returned to the vivarium. Noise exposure was calibrated over a range of 80-115 dB SPL across a wide range of frequencies using the Acoustical Interface Precision Microphone System and the Tucker Davis Technologies system. […]
Synaptic Analysis—Flat-mounted cochlear pieces from each ear were imaged at low magnification (10×) and the total length of the imaged tissue was measured and the frequency domains (4, 10, 20 and 40 kHz) were mapped onto the images. […]

[4] = 0.005% BDNF in P407 injected 1, 3, or 7 days after noise exposure
[5] = 0.005% BDNF in P407 injected 14 days after noise exposure

B1: brain-derived neurotrophic factor (protein, UniProt P23560 129-247, looked up)
Neurotrophic factor BDNF: HSDPARRGELSVCDSISEWVTAADKKTAVDMSGGTVTVLEKVPVSKGQLKQYFYETKCNPMGYTKEGCRGIDKRHWNSQCRTTQSYVRALTMDSKKRIGWRFIRIDTSCVCTLTIKRGR
modifications: Neurotrophic factor BDNF in 16% poloxamer 407 gel
notes: Human recombinant BDNF
Q: B1 was tested. Which ABR threshold shift [1, 4] did it give?
A: more rapid recovery of initial threshold shifts and overall reduced levels of hearing loss

Q: What about the “wave I amplitudes” value [1, 4] of the same molecule?
A: significant improvements

Q: What about the ABR threshold shift [1, 5] of the same molecule?
A: did not showed a more rapid recovery of initial threshold shifts and overall reduced levels of hearing loss

Q: What about the “wave I amplitudes” value [1, 5] of the same molecule?
A: did not show significant improvements

Q: And the “total neurite length, total number of extremities, segments, and nodes per cell” value [2]?
A: not statistically significant

Q: What about the “number of ribbon synapses per inner hair cell” value [3] of the same molecule?
A: increased
